Measured values from patent publication WO2005085862A1 (dated 2005).

Target: T1, human Glucose-regulated protein 78 (Grp78) (human, UniProt P11021 19-654)
T1 construct: whole, on cells; also called Grp78/Bip; cell surface localized Grp78
Assay: western blot of whole cell extracts with purified scFv

T1 sequence (P11021 19-654): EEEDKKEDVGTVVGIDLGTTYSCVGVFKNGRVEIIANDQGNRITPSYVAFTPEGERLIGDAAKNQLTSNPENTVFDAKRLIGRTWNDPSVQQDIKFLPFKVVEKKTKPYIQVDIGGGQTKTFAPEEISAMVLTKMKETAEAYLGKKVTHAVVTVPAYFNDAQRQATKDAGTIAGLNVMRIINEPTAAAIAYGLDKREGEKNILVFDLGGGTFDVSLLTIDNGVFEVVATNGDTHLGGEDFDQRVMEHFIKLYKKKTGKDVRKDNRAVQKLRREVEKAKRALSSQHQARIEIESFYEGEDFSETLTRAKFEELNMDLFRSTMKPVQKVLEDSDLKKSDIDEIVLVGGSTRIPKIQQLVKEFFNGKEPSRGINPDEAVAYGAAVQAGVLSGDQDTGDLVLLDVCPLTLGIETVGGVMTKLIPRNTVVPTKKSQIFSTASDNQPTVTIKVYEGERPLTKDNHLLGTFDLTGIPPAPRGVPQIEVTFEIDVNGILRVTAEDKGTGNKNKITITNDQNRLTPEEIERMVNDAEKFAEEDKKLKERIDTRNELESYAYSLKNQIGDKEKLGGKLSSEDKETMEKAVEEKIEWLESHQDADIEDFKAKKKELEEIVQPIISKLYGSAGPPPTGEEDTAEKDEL

binding result: binds
B1: Grp78-scFv clone-19 (scFv)
scFv: EVQLVESGGGVVQPGRSLRLSCAASGFTFSSYGMHWVRQAPGKGLEWVAVISYDGSNKYYADSVKGRFTISRDNSKNTLYLQMNSLRAEDTAVYYCARKINSTKEVWGQGTLVTVSSGGGGSGGGGSGGSALQSVLTQPPSASGTPGQRVTISCSGSSSNIGSNYVYWYQQLPGTAPKLLIYRNNQRPSGVPDRFSGSKSGTSASLAISGLRSEDEADYYCAAWDDSLNPLVVFGGGTKLTVLGAAAHHHHHHGAAEQN
notes: Tested as soluble scFv made in E. coli HB2151 and purified on a Ni column, apparent size about 29 kDa; It was detected through its c-myc tag with mAb 9E10; also called anti-Grp78 scFv-19; scFv-19
